The target in the assay is human CD303 antigen (human) (UniProt Q8WTT0). The assay is described as follows: cell-based or functional assay.
Sequence of human CD303 antigen (human) (Q8WTT0 whole entry): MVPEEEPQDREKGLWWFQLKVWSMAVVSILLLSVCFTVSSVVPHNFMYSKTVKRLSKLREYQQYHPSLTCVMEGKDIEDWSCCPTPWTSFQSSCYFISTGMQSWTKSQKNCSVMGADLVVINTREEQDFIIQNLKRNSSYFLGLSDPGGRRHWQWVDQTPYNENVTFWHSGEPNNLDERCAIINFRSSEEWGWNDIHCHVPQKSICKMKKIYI

B1: humanized anti-CD303 antibody BIIB059 (antibody, INN chains, looked up, V domains shown)
VH: DVQLVESGGGLVKPGGSLRLSCAASGFTFSTYTMSWVRQAPGKGLEWVATISPGDSFGYYYPDSVQGRFTISRDNAKNSLYLQMNSLRAEDTAVYYCTRDIYYNYGAWFAYWGQGTLVTVSS
VL: DIQLTQSPSSLSASVGDRVTITCKASQSVDYDGDSYMNWYQQKPGKAPKLLIYAASTLESGVPSRFSGSGSGTDFTLTISSLQPEDFATYYCQQANEDPRTFGQGTKVEIK
As to B1, the EC50 (ng/mL), ADCC activity via CD16a is 1.68 ng/mL and the Emax (% lysis), ADCC activity via CD16a worked out at 29.3 % lysis.

Values taken from patent US20180066060A1.
